How the values were obtained:
[1] = tested on: ATDC5 cells; test: bFGF-stimulated BrdU uptake in ATDC5 cells; type: cell-based, mouse; conditions: serum-free DMEM/F12, 20 hours
Experimental: When ATDC5 cells inoculated in the same manner as Example 40 became subconfluent, the cells were twice washed with serum-free DMEM/F12, serum-free DMEM/F12 was added at 1 ml/well, and the cells were cultured for 24 to 48 hours. Asporin and bFGF were added thereto, and the cells were further cultured for 20 hours, after which BrdU uptake assay was performed using Cell Proliferation ELISA, BrdU (Roche) by the protocol modified for 12-well plate assay as described below. Specifically, BrdU was added to the cells to obtain a final concentration of 1 μM, and the cells were cultured at 37° C. for 4 hours, after which the culture broth was removed by suction, and a fixative solution (FixDenat) was added at 1 ml/well, after which the plate was allowed to stand at room temperature for 30 minutes. The fixative solution was removed by suction, BrdU antibody-HRP (×1000) was added at 0.5 ml/well, and the plate was allowed to stand at room temperature for 1 hour, washed with TBST four times, a substrate solution was added at 0.3 ml/well to proceed the reaction at room temperature for 30 minutes until sufficient color development occurred. 1 M phosphoric acid was added at 0.3 ml/well to step the reaction, transferred to a 96-well plate, and OD415 was measured using a plate reader.

[2] = tested on: Smad2 phosphorylation in ATDC5 cells; test: TGF-β1-stimulated Smad2 phosphorylation in ATDC5 cells (Western blotting); type: cell-based, mouse; conditions: TGF-β1 10 ng/ml, 5 minutes
Experimental: ATDC5 was inoculated to a 12-well plate, and cultured using the medium 1-2 described in Example 19 until the cells became confluent, after which the medium was exchanged with the same medium but containing 0.2% FBS; 4 hours later, asporin was added. 12 hours later, TGF-β1 (10 ng/ml) was added; 5 minutes later, the cells were lysed with the M-PER reagent (PIERCE). Using this cell extract, SDS-PAGE was performed, and according to the protocol attached to an antibody product of Cell Signaling Company, Western blotting was performed. As the primary antibodies for detection of phosphorylated Smad2 and Smad2 protein, phospho-Smad2 antibody (Cell Signaling) and rabbit anti-Smad2 (Zymed Laboratories) were used, respectively. As the secondary antibody, anti-rabbit IgG-HRP (Cell Signaling) was used.

[3] = tested on: ATDC5 cells; test: Purified recombinant mouse asporin on TGF-β1-stimulated aggrecan and type II collagen gene expression in ATDC5; type: cell-based; conditions: TGF-β1 10 ng/ml, 18 hours, corrected by GAPDH
Experimental: ATDC5 cells were inoculated to a 12-well plate at […], and cultured in a medium 1-2 (a DMEM/F12 medium containing 5% FBS, ITS (Sigma), penicillin (100 U/ml) and streptomycin (100 μg/ml)) for 2 days. Purified mouse asporin diluted with a medium 1-2 containing 0.2% FBS was added to the cells, and the cells were further cultured for 12 hours, after which TGF-β1 (10 ng/ml) was added, and the cells were further cultured for 18 hours, after which total RNA extraction, purification, cDNA synthesis, and real-time PCR were performed in the same manner as Example 18. At this time, the expression levels of the aggrecan and type II collagen genes were corrected by the expression level of the […] (GAPDH) gene.

[4] = tested on: Smad2 phosphorylation in NHAC; test: Smad2 phosphorylation by TGF-β1 in NHAC (Western blotting); type: cell-based, human; conditions: asporin 20 μg/ml, TGF-β1 40 ng/ml, 10 minutes
Experimental: NHAC was inoculated to a 12-well plate, and cultured in a DMEM/F12 containing 10% FBS and penicillin/streptomycin; when the cells became nearly confluent, the medium was exchanged with the same medium containing 0.2% serum. 12 hours later, asporin (20 μg/ml) was added; still 12 hours later, TGF-β1 (40 ng/ml) was added; 10 minutes later, the cells were lysed with the M-PER reagent (PIERCE). SDA-PAGE was performed using this cell extract, and Western blotting was performed according to the protocol attached to an antibody product of Cell Signaling Company. As the primary antibodies for detection of phosphorylated Smad2 and Smad2 protein, Phospho-Smad2 antibody (Cell Signaling) and rabbit anti-Smad2 (Zymed Laboratories) were used, respectively. As the […], anti-rabbit IgG-HRP (Cell Signaling) was used.

[5] = tested on: Smad3-specific gene transcription in NHAC; test: SBE4-Luc reporter assay of TGF-β1-stimulated Smad3-specific gene transcription in NHAC; type: cell-based, human; conditions: asporin 40 μg/ml, TGF-β1 10 ng/ml, 24 hours
Experimental: NHAC was inoculated to a 24-well plate at 2.5×10^4 cells/well, cultured in a DMEM/F12 containing 10% FBS and penicillin/streptomycin for 24 hours, and transfected with the SBE4-Luc (Smad binding element ×4-luciferase) plasmid and the pRL-TK vector, which was used as endogenous control. 48 hours later, asporin (40 μg/ml) was added; still 12 hours later, TGF-β1 (10 ng/ml) was added; and the cells were incubated for 24 hours. The luciferase activity in the cells was measured using a PG-DUAL-SP reporter assay system (Toyo Ink).

[6] = biological target: bFGF (Homo sapiens, UniProt P09038); test: Binding assay of mouse asporin and bFGF by microplate assay method; conditions: bFGF-coated plate, OD405
Experimental: A binding assay was performed using the method described in Example 24 with a partial modification as described below. To a Maxisorp 96-well microplate of Nunc, a 1 μg/ml TGF-β1 solution prepared with 0.05M sodium carbonate buffer (pH 9.6) was dispensed at 100 μl/well, and the microplate was coated with TGF-β1 at 4° C. overnight. The TGF-β-coated wells were blocked in 200 μl/well of Block Ace at 37° C. for 3 hours. Next, mouse asporin and biotinylated mouse asporin, diluted with Block Ace, were added to obtain a total volume of 100 μl per well, and the microplate was incubated at 4° C. overnight. The wells were washed with […] of TBST three times, after which streptavidin-alkaline phosphatase (Novagen) diluted 1000 fold with TBST was added at […], and the microplate was incubated at room temperature for 1 hour. The wells were washed with 400 μl/well of TBST five times, and then colored using an alkaline phosphatase substrate kit (BIO-RAD), and the absorbance at 405 nm was measured using Ultramark Microplate Imaging System (BIO-RAD).
A binding assay was performed in the same manner as Example 34 except that the microplate was coated with bFGF solution in place of 1 μg/ml TGF-β1.

[7] = tested on: NHAC; test: Articular chondrocyte differentiation maintenance in redifferentiated NHAC; type: cell-based, human; conditions: 7 days, TGF-β1 40 ng/ml, asporin 20 μg/ml where added
Experimental: NHAC was redifferentiated by alginate beads culture for 2 weeks using a chondrocyte differentiation medium (CDM) manufactured by Cambrex Company according to the protocol attached. These redifferentiated cells were inoculated to a Lab-Tek II chamber slide (Nunc), a DMEM/F12 containing 5% FBS, ITS (Sigma), and TGF-β1 (40 ng/ml) was added, and the cells were allowed to maintain the degree of differentiation thereof; the effects of addition of asporin (20 μg/ml) on the cell morphology and extracellular proteoglycan accumulation were examined.

Chain of bFGF (P09038 134-288 limits assumed, species assumed): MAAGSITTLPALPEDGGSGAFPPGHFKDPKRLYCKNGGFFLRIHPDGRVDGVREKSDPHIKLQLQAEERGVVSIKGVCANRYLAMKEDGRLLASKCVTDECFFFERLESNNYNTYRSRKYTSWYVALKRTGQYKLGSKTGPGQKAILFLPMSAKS

TGF-β1-stimulated elevation of luciferase activity (SBE4-Luc) [5]: significantly suppressed
B1: purified mouse asporin: recombinant mouse asporin expressed in Escherichia coli, refolded from insoluble fraction and purified by gel filtration (protein)
chain: DMEDTDDDDNDDDDNSLFPTKEPVNPFFPFDLFPTCPFGCQCYSRVVHCSDLGLTSVPNNIPFDTRMVDLQNNKIKEIKENDFKGLTSLYALILNNNKLTKIHPKTFLTTKKLRRLYLSHNQLSEIPLNLPKSLAELRIHDNKVKKIQKDTFKGMNALHVLEMSANPLENNGIEPGAFEGVTVFHIRIAEAKLTSIPKGLPPTLLELHLDFNKISTVELEDLKRYRELQRLGLGNNRITDIENGTFANIPRVREIHLEHNKLKKIPSGLQELKYLQIIFLHYNSIAKVGVNDFCPTVPKMKKSLYSAISLFNNPMKYWEIQPATFRCVLGRMSVQLGNVGK
modifications: left off: small tags and cut ends
BrdU uptake in the absence of bFGF [1]: did not change BrdU uptake
BrdU uptake in the presence of bFGF [1]: further enhance the increase in BrdU uptake
Smad2 phosphorylation by TGF-β1 stimulation [2]: suppressed the Smad2 phosphorylation by TGF-β1 (10 ng/ml) stimulation concentration-dependently
suppression of the TGF-β1-stimulated expression of the aggrecan and type II collagen genes [3]: observed depending on the amount of purified mouse asporin added
Smad2 phosphorylation by TGF-β1 stimulation [4]: suppressed the Smad2 phosphorylation by TGF-β1 stimulation
binding to bFGF (microplate) [6]: bound to bFGF concentration-dependently and specifically
Safranine-O stainability (extracellular proteoglycan) [7]: decreased
cell morphology [7]: fibroblast-like morphology
